These results are taken from US20190322705A1 (NORWEGIAN UNIVERSITY OF LIFE SCIENCES, published 2019).

Assay in all cases: cell-based or functional assay
In test [1] the target is RseP of E. faecalis H18>A, expressed in S. pneumoniae ms1 (Enterococcus faecalis) (UniProt Q9RPP2).
The target in test [2] is RseP of E. faecalis Y24>A, expressed in S. pneumoniae ms4 (Enterococcus faecalis) (UniProt Q9RPP2).
The target of test [3] is RseP of E. faecalis E19>A, expressed in S. pneumoniae ms2 (Enterococcus faecalis) (UniProt Q9RPP2).
Test [4] addresses RseP of E. faecalis HExxH>AAxxA, expressed in S. pneumoniae ms5 (Enterococcus faecalis) (UniProt Q9RPP2).
The target of test [5] is RseP of E. faecalis H22>A, expressed in S. pneumoniae ms3 (Enterococcus faecalis) (UniProt Q9RPP2).
In test [6] the target is RseP of E. faecalis LMGT3358 (WT rseP), expressed in S. pneumoniae ds220 (Enterococcus faecalis) (UniProt Q9RPP2).
The target of test [7] is T1, RseP of E. faecalis HExxH>AAxxA, expressed in S. pneumoniae ms5 (Enterococcus faecalis, UniProt Q9RPP2 1-422).
T1 sequence: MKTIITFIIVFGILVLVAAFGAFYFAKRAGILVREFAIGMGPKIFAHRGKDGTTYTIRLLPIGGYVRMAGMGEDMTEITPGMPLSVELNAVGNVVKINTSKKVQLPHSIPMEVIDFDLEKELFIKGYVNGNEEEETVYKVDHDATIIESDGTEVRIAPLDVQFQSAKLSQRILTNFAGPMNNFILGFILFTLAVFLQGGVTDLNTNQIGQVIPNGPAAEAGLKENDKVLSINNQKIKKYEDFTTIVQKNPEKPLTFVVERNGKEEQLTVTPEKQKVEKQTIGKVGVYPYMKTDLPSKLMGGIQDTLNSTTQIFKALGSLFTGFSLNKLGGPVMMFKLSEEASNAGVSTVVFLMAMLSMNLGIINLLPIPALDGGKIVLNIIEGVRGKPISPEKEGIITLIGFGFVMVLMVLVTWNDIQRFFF

A value given as a limit tells only on which side of the number the result lay.

Turning to LsbB (peptide), the MIC (nM), S. pneumoniae ms1 in test [1] is above 7000 nM. The MIC (nM), S. pneumoniae ms4 in test [2] is above 7000 nM. Moreover, in test [3], the MIC (nM), S. pneumoniae ms2 was above 7000 nM. In addition, the MIC (nM), S. pneumoniae ms5 in test [4] was above 7000 nM. Also, in test [5], the MIC (nM), S. pneumoniae ms3 is above 7000 nM. This molecule came in with an MIC (nM), S. pneumoniae ds220 induced in test [6] above 7000 nM.

B1: EntEJ97 (peptide)
peptide: MLAKIKAMIKKFPNPYTLAAKLTTYEINWYKQQYGRYPWERPVA
In the case of B1, the “fold resistance against the WT RseP strain” value in test [7] was 30 times.
